Measurements reported in PMC12667214, “Phosphomimetic mutations near active sites of proteins in Thermus thermophilus suggest a widespread regulatory mechanism” (FEBS Open Bio, 2025).

How the values were obtained:
purified protein = substrate: O=C(O)CC(=O)C(=O)O; test: purified protein; settings: 0.15 mM NADH, 5 mM MgCl2, 100 mM KCl, 50 mM Tris-HCl pH 7.5, 30 °C, 30.0 °C
A340 spectrophotometry [1] = substrate: NC(=O)C1=CN([C@@H]2O[C@H](COP(=O)(O)OP(=O)(O)OC[C@H]3O[C@@H](n4cnc5c(N)ncnc54)[C@H](O)[C@@H]3O)[C@@H](O)[C@H]2O)C=CC1; test: A340 spectrophotometry; assay type: biochemical, Thermus thermophilus; settings: 25 μM oxaloacetate, 5 mM MgCl2, 100 mM KCl, 50 mM Tris-HCl pH 7.5, 30 °C
Excerpt: A340 spectrophotometry on ttMDH (malate dehydrogenase)

[2] = substrate: O=P(O)(O)OP(=O)(O)O; test: phosphate release, BIOMOL Green, A650; assay type: biochemical, Thermus thermophilus; settings: 2 mM MgCl2, 100 mM KCl, 50 mM Tris-HCl pH 7.5, 60 °C
Excerpt: phosphate release, BIOMOL Green, A650 on ttPPase (inorganic pyrophosphatase)

A340 spectrophotometry [3] = substrate: NC(=O)c1ccc[n+]([C@@H]2O[C@H](COP(=O)(O)OP(=O)(O)OC[C@H]3O[C@@H](n4cnc5c(N)ncnc54)[C@H](OP(=O)(O)O)[C@@H]3O)[C@@H](O)[C@H]2O)c1; test: A340 spectrophotometry; assay type: biochemical, Thermus thermophilus; settings: 2 mM isocitrate, 5 mM MgCl2, 100 mM KCl, 50 mM Tris-HCl pH 7.5, 60 °C
Excerpt: (§1) A340 spectrophotometry on ttIDH (isocitrate dehydrogenase)

A340 spectrophotometry [4] = substrate: O=C(O)C[C@H](C(=O)O)[C@@H](O)C(=O)O; test: A340 spectrophotometry; assay type: biochemical, Thermus thermophilus; settings: 4 mM NADP+, 5 mM MgCl2, 100 mM KCl, 50 mM Tris-HCl pH 7.5, 60 °C
Excerpt: as §1

[5] = substrate: Nc1ncnc2c1ncn2[C@@H]1O[C@H](COP(=O)(O)OP(=O)(O)OP(=O)(O)O)[C@@H](O)[C@H]1O; test: pyruvate kinase/lactate dehydrogenase coupled assay, A340; assay type: biochemical, Thermus thermophilus; settings: 1 mM CMP, 25 °C, pH 7.5, 5 mM MgCl2
Excerpt: (§2) pyruvate kinase/lactate dehydrogenase coupled assay, A340 on ttCMPK (CMP kinase)

[6] = substrate: Nc1ccn([C@@H]2O[C@H](COP(=O)(O)O)[C@@H](O)[C@H]2O)c(=O)n1; test: as above; assay type: biochemical, Thermus thermophilus; settings: 1 mM ATP, 25 °C, pH 7.5, 5 mM MgCl2
Excerpt: as §2

[7] = substrate: Nc1ncnc2c1ncn2[C@@H]1O[C@H](COP(=O)(O)OP(=O)(O)OP(=O)(O)O)[C@@H](O)[C@H]1O; test: as above; assay type: biochemical, Thermus thermophilus; settings: excess UMP (methods print 1 mM CMP), 25 °C, pH 7.5, 5 mM MgCl2
[8] = substrate: Nc1ncnc2c1ncn2[C@@H]1O[C@H](COP(=O)(O)O)[C@@H](O)[C@H]1O; test: as above; assay type: biochemical, Thermus thermophilus; settings: 1 mM ATP, 5 mM MgCl2, 100 mM KCl, 50 mM Tris-HCl pH 7.5, 25 °C
Excerpt: pyruvate kinase/lactate dehydrogenase coupled assay, A340 on ttAMPK (AMP kinase)

B1: ttMDH (malate dehydrogenase) (Thermus thermophilus HB8) (protein)
chain: MKAPVRVAVTGAAGQIGYSLLFRIAAGEMLGKDQPVILQLLEIPQAMKALEGVVMELEDCAFPLLAGLEATDDPKVAFKDADYALLVGAAPRKAGMERRDLLQVNGKIFTEQGRALAEVAKKDVKVLVVGNPANTNALIAYKNAPGLNPRNFTAMTRLDHNRAKAQLAKKTGTGVDRIRRMTVWGNHSSTMFPDLFHAEVDGRPALELVDMEWYEKVFIPTVAQRGAAIIQARGASSAASAANAAIEHIRDWALGTPEGDWVSMAVPSQGEYGIPEGIVYSFPVTAKDGAYRVVEGLEINEFARKRMEITAQELLDEMEQVKALGLI
notes: recombinant in E. coli C41(DE3)pRARE2, pET-11a, no tag mentioned
Question: How did the Km (purified protein) turn out when B1 was run?
Answer: 8.6 ± 0.4 µM

Question: And the kcat (purified protein)?
Answer: 203 ± 5 s⁻¹

Question: What about the Km (A340 spectrophotometry [1]) of the same protein?
Answer: 2.7 ± 0.9 µM

Question: And the kcat (A340 spectrophotometry [1])?
Answer: 126 ± 14 s⁻¹

B2: ttMDH (malate dehydrogenase) (Thermus thermophilus HB8; S236A) (protein)
chain: MKAPVRVAVTGAAGQIGYSLLFRIAAGEMLGKDQPVILQLLEIPQAMKALEGVVMELEDCAFPLLAGLEATDDPKVAFKDADYALLVGAAPRKAGMERRDLLQVNGKIFTEQGRALAEVAKKDVKVLVVGNPANTNALIAYKNAPGLNPRNFTAMTRLDHNRAKAQLAKKTGTGVDRIRRMTVWGNHSSTMFPDLFHAEVDGRPALELVDMEWYEKVFIPTVAQRGAAIIQARGAASAASAANAAIEHIRDWALGTPEGDWVSMAVPSQGEYGIPEGIVYSFPVTAKDGAYRVVEGLEINEFARKRMEITAQELLDEMEQVKALGLI
notes: as for B1
Question: Which Km (purified protein) does the source give for B2 here?
Answer: 52 ± 2 µM

Question: What about the kcat (purified protein) of the same protein?
Answer: 622 ± 8 s⁻¹

Question: What about the Km (A340 spectrophotometry [1]) of the same protein?
Answer: 7.6 ± 0.2 µM

Question: And the kcat (A340 spectrophotometry [1])?
Answer: 468 ± 15 s⁻¹

B3: ttPPase (inorganic pyrophosphatase) (Thermus thermophilus HB8) (protein)
chain: ANLKSLPVGDKAPEVVHMVIEVPRGSGNKYEYDPDLGAIKLDRVLPGAQFYPGDYGFIPSTLAEDGDPLDGLVLSTYPLLPGVVVEVRVVGLLLMEDEKGGDAKVIGVVAEDQRLDHIQDIGDVPEGVKQEIQHFFETYKALEAKKGKWVKVTGWRDRKAALEEVRACIARYKG
notes: as for B1
Question: B3 was tested. Which Km [2] did it give?
Answer: 17 ± 2 µM

Question: And the kcat [2]?
Answer: 62 ± 11 s⁻¹

B4: ttPPase (inorganic pyrophosphatase) (Thermus thermophilus HB8; Y140F) (protein)
chain: ANLKSLPVGDKAPEVVHMVIEVPRGSGNKYEYDPDLGAIKLDRVLPGAQFYPGDYGFIPSTLAEDGDPLDGLVLSTYPLLPGVVVEVRVVGLLLMEDEKGGDAKVIGVVAEDQRLDHIQDIGDVPEGVKQEIQHFFETFKALEAKKGKWVKVTGWRDRKAALEEVRACIARYKG
notes: as for B1
Question: B4 was tested. Which Km [2] did it give?
Answer: 53 ± 0 µM

Question: And the kcat [2]?
Answer: 19 ± 3 s⁻¹

B5: ttIDH (isocitrate dehydrogenase) (Thermus thermophilus HB8) (protein)
chain: PLITTETGKKMHVLEDGRKLITVIPGDGIGPECVEATLKVLEAAKAPLAYEVREAGASVFRRGIASGVPQETIESIRKTRVVLKGPLETPVGYGEKSANVTLRKLFETYANVRPVREFPNVPTPYAGRGIDLVVVRENVEDLYAGIEHMQTPSVAQTLKLISWKGSEKIVRFAFELARAEGRKKVHCATKSNIMKLAEGTLKRAFEQVAQEYPDIEAVHIIVDNAAHQLVKRPEQFEVIVTTNMNGDILSDLTSGLIGGLGFAPSANIGNEVAIFEAVHGSAPKYAGKNVINPTAVLLSAVMMLRYLEEFATADLIENALLYTLEEGRVLTGDVVGYDRGAKTTEYTEAIIQNLGKTPRKTQVRGYKPFRLPQVDGAIAPIVPRSRRVVGVDVFVETNLLPEALGKALEDLAAGTPFRLKMISNRGTQVYPPTGGLTDLVDHYRCRFLYTGEGEAKDPEILDLVSRVASRFRWMHLEKLQEFDGEPGFTKAQGED
notes: as for B1
Question: What does the source list for B5?
Answer: Km (A340 spectrophotometry [3]): 39 ± 1 µM; kcat (A340 spectrophotometry [3]): 30 ± 2 s⁻¹; Km (A340 spectrophotometry [4]): 34 ± 2 µM; kcat (A340 spectrophotometry [4]): 26 ± 1 s⁻¹

B6: ttIDH (isocitrate dehydrogenase) (Thermus thermophilus HB8; S98E) (protein)
chain: PLITTETGKKMHVLEDGRKLITVIPGDGIGPECVEATLKVLEAAKAPLAYEVREAGASVFRRGIASGVPQETIESIRKTRVVLKGPLETPVGYGEKEANVTLRKLFETYANVRPVREFPNVPTPYAGRGIDLVVVRENVEDLYAGIEHMQTPSVAQTLKLISWKGSEKIVRFAFELARAEGRKKVHCATKSNIMKLAEGTLKRAFEQVAQEYPDIEAVHIIVDNAAHQLVKRPEQFEVIVTTNMNGDILSDLTSGLIGGLGFAPSANIGNEVAIFEAVHGSAPKYAGKNVINPTAVLLSAVMMLRYLEEFATADLIENALLYTLEEGRVLTGDVVGYDRGAKTTEYTEAIIQNLGKTPRKTQVRGYKPFRLPQVDGAIAPIVPRSRRVVGVDVFVETNLLPEALGKALEDLAAGTPFRLKMISNRGTQVYPPTGGLTDLVDHYRCRFLYTGEGEAKDPEILDLVSRVASRFRWMHLEKLQEFDGEPGFTKAQGED
notes: as for B1
Question: B6 was tested. Which Km (A340 spectrophotometry [3]) did it give?
Answer: 144 ± 21 µM

Question: What about the kcat (A340 spectrophotometry [3]) of the same protein?
Answer: 0.12 ± 0 s⁻¹

Question: What about the Km (A340 spectrophotometry [4]) of the same protein?
Answer: 178 ± 28 µM

Question: What about the kcat (A340 spectrophotometry [4]) of the same protein?
Answer: 0.19 ± 0.02 s⁻¹

B7: ttCMPK (CMP kinase) (Thermus thermophilus HB8; S11E) (protein)
chain: MRGIVTIDGPEASGKSSVARRVAAALGVPYLSSGLLYRAAAFLALRAGVDPGDEEGLLALLEGLGVRLLAQAEGNRVLADGEDLTSFLHTPEVDRVVSAVARLPGVRAWVNRRLKEVPPPFVAEGRDMGTAVFPEAAHKFYLTASPEVRAWRRARERPQAYEEVLRDLLRRDERDKAQSAPAPDALVLDTGGMTLDEVVAWVLAHIRR
notes: recombinant in E. coli C41(DE3)pRARE2, pET-11a, no tag mentioned; monomer
Question: With B7 as the protein, how does the Km [5] read?
Answer: 60 ± 14 µM

Question: And the kcat [5]?
Answer: 0.05 ± 0.01 s⁻¹

B8: ttCMPK (CMP kinase) (Thermus thermophilus HB8; S11A) (protein)
chain: MRGIVTIDGPAASGKSSVARRVAAALGVPYLSSGLLYRAAAFLALRAGVDPGDEEGLLALLEGLGVRLLAQAEGNRVLADGEDLTSFLHTPEVDRVVSAVARLPGVRAWVNRRLKEVPPPFVAEGRDMGTAVFPEAAHKFYLTASPEVRAWRRARERPQAYEEVLRDLLRRDERDKAQSAPAPDALVLDTGGMTLDEVVAWVLAHIRR
notes: as for B7
Question: For B8, which Km [6] is on record?
Answer: 53 ± 3 µM

Question: What about the kcat [6] of the same protein?
Answer: 57 ± 8 s⁻¹

B9: ttCMPK (CMP kinase) (Thermus thermophilus HB8) (protein)
chain: MRGIVTIDGPSASGKSSVARRVAAALGVPYLSSGLLYRAAAFLALRAGVDPGDEEGLLALLEGLGVRLLAQAEGNRVLADGEDLTSFLHTPEVDRVVSAVARLPGVRAWVNRRLKEVPPPFVAEGRDMGTAVFPEAAHKFYLTASPEVRAWRRARERPQAYEEVLRDLLRRDERDKAQSAPAPDALVLDTGGMTLDEVVAWVLAHIRR
notes: as for B7
Question: With B9 as the protein, how does the Km [5] read?
Answer: 53 ± 1 µM

Question: What about the kcat [5] of the same protein?
Answer: 40 ± 1 s⁻¹

Question: What about the Km [6] of the same protein?
Answer: 61 ± 19 µM

Question: And the kcat [6]?
Answer: 54 ± 16 s⁻¹

B10: ttUMPK (UMP kinase) (Thermus thermophilus HB8; S11A) (protein)
chain: MKYKRVLLKLAGEFLTRNGFGIEPEATQALAREIKAAYDTGVQLAIVIGAGNLWRGARQGVGMDRATADYIGMLATIMNALALQDALESLGVPTRVQTALTITQVAEPYIRRRALRHLEKERIVIFGGGTGNPFFSTDTAAALRALEVGAEVVLMAKNKVDGVYSDDPRKNPEAVRFDELTYLEVLNRGLQVMDTTAITLCMEAGLPIVVFDIFKPGALVGIIQGEKVGTLIH
notes: recombinant in E. coli C41(DE3)pRARE2, pET-11a, no tag mentioned; hexamer (prokaryotic UMP kinases)
Question: B10 was tested. Which Km [7] did it give?
Answer: 732 ± 206 µM

Question: What about the kcat [7] of the same protein?
Answer: 0.04 ± 0.02 s⁻¹

B11: ttAMPK (AMP kinase) (Thermus thermophilus HB8) (protein)
chain: MDVGQAVIFLGPPGAGKGTQASRLAQELGFKKLSTGDILRDHVARGTPLGERVRPIMERGDLVPDDLILELIREELAERVIFDGFPRTLAQAEALDRLLSETGTRLLGVVLVEVPEEELVRRILRRAELEGRSDDNEETVRRRLEVYREKTEPLVGYYEARGVLKRVDGLGTPDEVYARIRAALGI
notes: recombinant in E. coli Rosetta2(DE3), pET-3a, no tag mentioned; monomer
Question: How did the Km [8] turn out when B11 was run?
Answer: 23 ± 1 µM

Question: What about the kcat [8] of the same protein?
Answer: 111 ± 3 s⁻¹

B12: ttAMPK (AMP kinase) (Thermus thermophilus HB8; S34A) (protein)
chain: MDVGQAVIFLGPPGAGKGTQASRLAQELGFKKLATGDILRDHVARGTPLGERVRPIMERGDLVPDDLILELIREELAERVIFDGFPRTLAQAEALDRLLSETGTRLLGVVLVEVPEEELVRRILRRAELEGRSDDNEETVRRRLEVYREKTEPLVGYYEARGVLKRVDGLGTPDEVYARIRAALGI
notes: as for B11
Question: With B12 as the protein, how does the Km [8] read?
Answer: 71 ± 2 µM

Question: And the kcat [8]?
Answer: 142 ± 4 s⁻¹

B13: ttAMPK (AMP kinase) (Thermus thermophilus HB8; S34E) (protein)
chain: MDVGQAVIFLGPPGAGKGTQASRLAQELGFKKLETGDILRDHVARGTPLGERVRPIMERGDLVPDDLILELIREELAERVIFDGFPRTLAQAEALDRLLSETGTRLLGVVLVEVPEEELVRRILRRAELEGRSDDNEETVRRRLEVYREKTEPLVGYYEARGVLKRVDGLGTPDEVYARIRAALGI
notes: as for B11
Question: For B13, which Km [8] is on record?
Answer: 153 ± 1 µM

Question: What about the kcat [8] of the same protein?
Answer: 3.7 s⁻¹
